The values that follow come from the nanobody polyreactivity screen of Harvey et al. (2022).

The series is described as follows: yeast display, Sf9 membrane polyspecificity reagent, FACS + sequencing; frameworks hold sequencing errors. A digest of the protocol:
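After 36–48 hours of galactose induction, yeast (Saccharomyces cerevisiae BJ5465) displaying a synthetic nanobody library were stained at 4 °C for 1 hour with 10% biotinylated, detergent-solubilized Sf9 membrane reagent. Streptavidin microbeads enriched the stained cells before FACS sorting into low and high (top ~1%) gates on anti-HA and streptavidin fluorescence. Each clone's polyreactivity label reflects its gate of origin.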
“QVQLVESGGGLVQAGGSLRLSCAASGRIFRWYAMGWYRQAPGKERELVAAISSRGGSTYYADSVKGRFTISRDNAKNTVYLQMNSLKPEDTAVYYCAADTSGWQPRYDYWGQGTQVTVSS”: the “polyreactivity (PSR sort gate)” value is recorded as “high polyreactivity”.

As for “QVQLVESGGGLVQAGGSLRLSCAASGRIFRWYAMGWYRQAPGKERELVAAISSSGGSTYYADSVKGRFTISRDNAKINVYLQMKSLKPEDTAVYYCNAEAVAYWSVPYNYWGQGTQVTVSS”, the “polyreactivity (PSR sort gate)” value is reported as “high polyreactivity”.

Take “QVQLVESGGGLVQAGGSLRLSCAASGRIFRWYAMGWYRQAPGKERELVAAITQGGGSTYYADSVKGRFTISRDNAKNTVYLQMNSLKPEDTAVYYCAARGRSVGSAGTSRYGYWGQGTQVTVSS”: the “polyreactivity (PSR sort gate)” value was “high polyreactivity”.

As for “QVQLVESGGGLVQAGGSLRLSCAASGRIFRWYTMGWYRQAPGKERELVARISSGGITYYADSVKGPFTISRDNAKNTVYLQMNSLKPEDTAVYYCNTYVSRNFDYWGQGTQLTVSS”, the “polyreactivity (PSR sort gate)” value is recorded as “high polyreactivity”.

As for “QVQLVESGGGLVQAGGSLRLSCAASGRIFRYNAKGWYRQAPGKERELVAAISRDGSTYYADSVKGRFTISRDNAKNTVYLQMKSLKPEDTAVYYCAAGYSRRGWRRAYNYWGQGTQVTVSS”, the “polyreactivity (PSR sort gate)” value is recorded as “high polyreactivity”.

Take “QVQLVESGGGLVQAGGSLRLSCAASGRIFRYNAMGLYRQAPGKERELVAVITSRGGRTYYADSVKGRFTISRDNAKNTVYLQMNSLKPEDTAVYYCTAKRYRYYRWYFTGKYDYWGQGTQVTVSS”: the “polyreactivity (PSR sort gate)” value is “high polyreactivity”.

For “QVQLVESGGGLVQAGGSLRLSCAASGRIFRYNAMGWYRQAPGKERELVAAISTRGGNTYYADSVKGRFTISRDNAKNTVYLQMNSLKPEDTAVYYCNARSSLPYNYWGQGTQVTVSS”, the “polyreactivity (PSR sort gate)” value is recorded as “high polyreactivity”.

With “QVQLVESGGGLVQAGGSLRLSCAASGRIFRYNAMGWYRQAPGKERELVAAISWSGGSTYADSVKGRFTISRDNAKNTVYLQMNSLKPEDTAVYFCAADSSDLYVWGYDHGGQGTQVTVSS”, the “polyreactivity (PSR sort gate)” value is reported as “low polyreactivity”.

For “QVQLVESGGGLVQAGGSLRLSCAASGRIFRYNAMGWYRQAPGKERELVAAITKGGGSTYYADSVKGRFTISRDNAKNTVYLQMTSLNPEDTGVYYCAARRAVYRGNYWGQGTKVTVSS”, the “polyreactivity (PSR sort gate)” value was “high polyreactivity”.

“QVQLVESGGGLVQAGGSLRLSCAASGRIFRYNAMGWYRQAPGKERELVASINQRGGYTYYADSVKGRFTISRDNAKNTVYLQMNSLKPEDTAVYYCAADRPRGRETVYYWGQGTQVTVSS”: the “polyreactivity (PSR sort gate)” value is “high polyreactivity”.

With “QVQLVESGGGLVQAGGSLRLSCAASGRIFRYNAMGWYRQAPGKERELVASISSSGGSTYYADSVKGRFTISRDTAKNTVYLQMNCLKPEDTAVYYCSAYPGDRHSRINLGYWGQGTQVTVSS”, the “polyreactivity (PSR sort gate)” value is “high polyreactivity”.

As for “QVQLVESGGGLVQAGGSLRLSCAASGRIFRYNAMGWYRQAPGKERELVATITSGGNTNYADSVKGRFTISRDNAKNTVYLQMISLKPEDTAVYYCNAAEPQWYDAYDYWGQGTQVTVSS”, the “polyreactivity (PSR sort gate)” value was “low polyreactivity”.

Consider “QVQLVESGGGLVQAGGSLRLSCAASGRIFRYNAMGWYRQAPGKEWELVAAIRFSGGSTYYADSVKGRFTLSRDNAKNTVYLHMNSLKPEDTAVYYCAKVYFRVQSGMDYWGQGTQVTVST”, for which the “polyreactivity (PSR sort gate)” value is “low polyreactivity”.

With “QVQLVESGGGLVQAGGSLRLSCAASGRIFRYNTLGWYRQAPGKERELVAAINSSGGRTYYADSVKGRFTISRDNAKNTVYLQMNSLKPEDTAVYYCAAVIYVLSGPGYDYWGQGTQVTVSS”, the “polyreactivity (PSR sort gate)” value is listed as “high polyreactivity”.

Consider “QVQLVESGGGLVQAGGSLRLSCAASGRIFRYNTMGWYRQAPGKERELVADINSGGSTYADSVKGRFTISRDNAKNTVYLQMNSLKPEDTAVYYCNADSGLRAGYYYGYDYWGQGTQVTVSS”, for which the “polyreactivity (PSR sort gate)” value is listed as “low polyreactivity”.

For “QVQLVESGGGLVQAGGSLRLSCAASGRIFRYNTMGWYRQAPGKERELVADITSSDSSTYYADSVKGRFTISRDNAKNTVYLQMNSLKPEDTAVYYCAARDSGYGWRYYYWGQGTQVTVSS”, the “polyreactivity (PSR sort gate)” value is listed as “low polyreactivity”.

Consider “QVQLVESGGGLVQAGGSLRLSCAASGRIFRYNVMGWYRQAPGKERELVAAITSRGGSTYYADSVKGRFTISRDNAKNTVYLQMNSLKPEDTAVYYCAAYPWEFGTYNYWGQGTQVTVSS”, for which the “polyreactivity (PSR sort gate)” value is “high polyreactivity”.

As to “QVQLVESGGGLVQAGGSLRLSCAASGRIFRYYAKGWYRQAPGKERELVARIRWSGGSTYYADSVKGRFTISRDNAKNTVYLQMNSLKPEDTAVYYCNAGSWSYRYNYWGQGTQVTVSS”, the “polyreactivity (PSR sort gate)” value is recorded as “high polyreactivity”.

For the sequence “QVQLVESGGGLVQAGGSLRLSCAASGRIFRYYAMGWYRQAAGKERELVAAISYSGGRTYYADSVKGRFTISRDNAKNTVYVQMNSLKPEDTAVYYCASVWHSQSSYVPFDSWGQGTQVTVSS”, the “polyreactivity (PSR sort gate)” value is “high polyreactivity”.

As to “QVQLVESGGGLVQAGGSLRLSCAASGRIFRYYAMGWYRQAPAKERELVASISRRGGSTNYADSVKGRFTISRDNAKNTVYLQMNSLKPEDTAVYYCNAENWSPRGLYNYWGQGTQVTVSS”, the “polyreactivity (PSR sort gate)” value is reported as “high polyreactivity”.

As for “QVQLVESGGGLVQAGGSLRLSCAASGRIFRYYAMGWYRQAPGKERELVAAIRWTAGSTYYADSVKGRFTISRDIAKNTVYLQMNSLKPEDTAVYYCATDVWKYGRYEYWGQGTQVTVSS”, the “polyreactivity (PSR sort gate)” value is recorded as “low polyreactivity”.

As for “QVQLVESGGGLVQAGGSLRLSCAASGRIFRYYAMGWYRQAPGKERELVAAISRRGSSTYYADSVKGRFTISRDNAKNTVYLQMNSLKPEDTAVYYCSAKRQVYQSESTYEYWGQGTQVTVSS”, the “polyreactivity (PSR sort gate)” value was “high polyreactivity”.

In the case of “QVQLVESGGGLVQAGGSLRLSCAASGRIFRYYAMGWYRQAPGKERELVAAISVSGGSTYYADSVKGRFTISRDNAKNTVYLKMNSLKPEDTAVYYCAARIKTYSKRYYWGQATQVTVSS”, the “polyreactivity (PSR sort gate)” value is “high polyreactivity”.

As for “QVQLVESGGGLVQAGGSLRLSCAASGRIFRYYAMGWYRQAPGKERELVAAISWSGGRTYYADSVKGRFTISRDNAKNSVYLQMNSLIPEDTAVFYCYAGYLYPGYFVREYDYWGQGTQVTVSS”, the “polyreactivity (PSR sort gate)” value is “high polyreactivity”.

With “QVQLVESGGGLVQAGGSLRLSCAASGRIFRYYAMGWYRQAPGKERELVAAITAGGGTTYYADSVKGRFTISRDNAKNTVYLQMNSLKPEDTAVYYWAKDGRYYSHYNYWGQGTQVTVSS”, the “polyreactivity (PSR sort gate)” value is listed as “high polyreactivity”.

As for “QVQLVESGGGLVQAGGSLRLSCAASGRIFRYYAMGWYRQAPGKERELVASSTYYADSVKGRFTISRDNAKNTVYLQMNSLKPEDTAVYYCAAVKGTRGWYDYWGQGTQVTVSS”, the “polyreactivity (PSR sort gate)” value is reported as “high polyreactivity”.

In the case of “QVQLVESGGGLVQAGGSLRLSCAASGRIFRYYAMGWYRQATGKQRELVAAISSGVGNTYYADSVKGRFTISRDNAKNTVYLQMNSLKPEDTAVYYCNAKWRKFGTVRYDYWGQGTQVTVSS”, the “polyreactivity (PSR sort gate)” value is “high polyreactivity”.

In the case of “QVQLVESGGGLVQAGGSLRLSCAASGRIFRYYDMAWYTQAPGKEREFVAAITRSGAITYYADSVKGRFTKSRDNAKNTVYLQMNSLKPEDTAVYYCAARYWAKFGYWGQGTQVTVSS”, the “polyreactivity (PSR sort gate)” value is “low polyreactivity”.

“QVQLVESGGGLVQAGGSLRLSCAASGRIFRYYTMGWYRQAPGKVRELVAAITRRGGITNYADSVTGRFTISRDNAKNTVYLQMNSLKPEDTAVYYCAAKSVSQGDDYWGQGTQVTVSS”: the “polyreactivity (PSR sort gate)” value is given as “high polyreactivity”.

Regarding “QVQLVESGGGLVQAGGSLRLSCAASGRIFRYYVLGWYRQAPGKERELVATINWSGSRTYYADSVKGRFTISRDNAKNTVYLQMNSLKPEDTAVYYCAARTFNTYPRYYYWGQGTQVTVSS”, the “polyreactivity (PSR sort gate)” value is on record as “high polyreactivity”.
